Consider three molecules from patent publication US20170129954A1 (PROTHENA BIOSCIENCES, published 2017).

Residue numbers refer to the chain shown, from its start. Names and notes keep the numbering of the source.

One assay deals with T1, recombinant laminin 511 (UniProt O15230 36-3695; P07942 22-1786; P11047 34-1609).
T1 construct: also called laminin 10 (α5β1γ1)
The assay can be described thus: flow cytometry with pan-laminin antibody on CHO cells transfected with human MCAM. On the technique in general: Flow cytometry measures light scatter and fluorescence of single cells or particles in a stream.

In the next assay the target is laminin α-4 (UniProt Q16363 25-1823). Description: FACS on mammalian cells displaying the mutant. From the text:
Twenty point mutants based on the structure information and shotgun mutagenesis information were designed and generated.

Chain of laminin α-4 (Q16363 25-1823): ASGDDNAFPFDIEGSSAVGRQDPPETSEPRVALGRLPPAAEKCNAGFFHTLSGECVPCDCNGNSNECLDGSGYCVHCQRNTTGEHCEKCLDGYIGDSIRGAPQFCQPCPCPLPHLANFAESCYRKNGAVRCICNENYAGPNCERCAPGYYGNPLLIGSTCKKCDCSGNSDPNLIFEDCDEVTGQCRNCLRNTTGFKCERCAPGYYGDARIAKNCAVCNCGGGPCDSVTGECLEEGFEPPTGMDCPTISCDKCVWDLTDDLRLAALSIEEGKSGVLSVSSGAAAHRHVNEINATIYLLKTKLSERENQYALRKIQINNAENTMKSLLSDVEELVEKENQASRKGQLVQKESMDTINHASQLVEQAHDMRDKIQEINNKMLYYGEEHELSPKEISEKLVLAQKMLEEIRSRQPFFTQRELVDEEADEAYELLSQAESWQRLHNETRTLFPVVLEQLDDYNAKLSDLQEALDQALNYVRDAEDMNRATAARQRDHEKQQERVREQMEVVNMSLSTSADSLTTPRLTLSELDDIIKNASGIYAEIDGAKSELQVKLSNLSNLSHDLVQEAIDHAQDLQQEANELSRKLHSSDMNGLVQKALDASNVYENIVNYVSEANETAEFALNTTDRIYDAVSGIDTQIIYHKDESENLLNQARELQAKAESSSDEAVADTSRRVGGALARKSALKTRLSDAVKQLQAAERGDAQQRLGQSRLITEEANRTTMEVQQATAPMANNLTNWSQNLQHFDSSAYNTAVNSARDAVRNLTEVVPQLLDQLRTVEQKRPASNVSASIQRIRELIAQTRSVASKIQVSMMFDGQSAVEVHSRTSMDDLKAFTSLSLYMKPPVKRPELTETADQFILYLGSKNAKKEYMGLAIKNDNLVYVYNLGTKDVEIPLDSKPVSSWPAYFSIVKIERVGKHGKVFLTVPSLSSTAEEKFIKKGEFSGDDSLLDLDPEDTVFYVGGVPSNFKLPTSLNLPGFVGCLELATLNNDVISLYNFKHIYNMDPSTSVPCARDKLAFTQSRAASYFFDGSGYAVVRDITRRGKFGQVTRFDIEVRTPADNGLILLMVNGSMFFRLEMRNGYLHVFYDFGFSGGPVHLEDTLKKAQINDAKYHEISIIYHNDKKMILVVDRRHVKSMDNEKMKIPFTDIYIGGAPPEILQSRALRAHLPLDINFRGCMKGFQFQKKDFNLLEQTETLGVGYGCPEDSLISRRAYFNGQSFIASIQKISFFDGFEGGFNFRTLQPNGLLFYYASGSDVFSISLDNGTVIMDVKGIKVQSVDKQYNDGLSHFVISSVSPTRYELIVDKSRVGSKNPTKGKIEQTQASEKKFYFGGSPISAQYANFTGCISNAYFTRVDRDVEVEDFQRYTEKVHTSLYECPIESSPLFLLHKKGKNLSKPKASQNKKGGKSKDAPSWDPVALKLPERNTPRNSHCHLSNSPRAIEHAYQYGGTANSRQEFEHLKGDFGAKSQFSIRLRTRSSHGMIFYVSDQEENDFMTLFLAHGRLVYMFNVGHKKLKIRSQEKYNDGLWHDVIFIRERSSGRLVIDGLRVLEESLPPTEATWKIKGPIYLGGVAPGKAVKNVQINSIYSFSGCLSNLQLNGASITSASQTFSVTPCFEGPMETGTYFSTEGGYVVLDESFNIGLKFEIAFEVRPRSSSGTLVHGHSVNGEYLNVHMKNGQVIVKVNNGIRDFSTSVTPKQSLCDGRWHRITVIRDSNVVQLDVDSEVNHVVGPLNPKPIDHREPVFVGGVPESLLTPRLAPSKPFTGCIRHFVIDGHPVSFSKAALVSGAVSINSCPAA

B1: human MCAM, full length, expressed on transfected cells (receptor)
chain: VPGEAEQPAPELVEVEVGSTALLKCGLSQSQGNLSHVDWFSVHKEKRTLIFRVRQGQGQSEPGEYEQRLSLQDRGATLALTQVTPQDERIFLCQGKRPRSQEYRIQLRVYKAPEEPNIQVNPLGIPVNSKEPEEVATCVGRNGYPIPQVIWYKNGRPLKEEKNRVHIQSSQTVESSGLYTLQSILKAQLVKEDKDAQFYCELNYRLPSGNHMKESREVTVPVFYPTEKVWLEVEPVGMLKEGDRVEIRCLADGNPPPHFSISKQNPSTREAEEETTNDNGVLVLEPARKEHSGRYECQAWNLDTMISLLSEPQELLVNYVSDVRVSPAAPERQEGSSLTLTCEAESSQDLEFQWLREETDQVLERGPVLQLHDLKREAGGGYRCVASVPSIPGLNRTQLVKLAIFGPPWMAFKERKVWVKENMVLNLSCEASGHPRPTISWNVNGTASEQDQDPQRVLSTLNVLVTPELLETGVECTASNDLGKNTSILFLELVNLTTLTPDSNTTTGLSTSTASPHTRANSTSTERKLPEPESRGVVIVAVIVCILVLAVLGAVLYFLYKKGKLPCRRSGKQEITLPPSRKTELVVEVKSDKLPEEMGLLQGSSGDKRAPGDQGEKYIDLRH
notes: also called CD146; MUC18
Regarding B1, the binding result with recombinant laminin 511 was “no binding (tested: 10 µg/ml)”.

B2: human MCAM Y318A single mutant displayed on mammalian cells (receptor)
chain: B1 chain with Y295A
notes: also called Y318A mutant
On to B2, for which, in the assay with laminin α-4, the binding result was “no binding”.

B3: human MCAM D216A single mutant displayed on mammalian cells (receptor)
chain: B1 chain with D193A
Regarding B3, the binding result with laminin α-4 is on record as “no binding”.
